According to patent US20170044238A1 (NATIONAL RESEARCH COUNCIL OF CANADA, published 2017):

T1: human lysozyme (human, UniProt P61626 19-148)
T1 construct: Bought; passed through Superdex 75 before SPR
T1 sequence (looked up): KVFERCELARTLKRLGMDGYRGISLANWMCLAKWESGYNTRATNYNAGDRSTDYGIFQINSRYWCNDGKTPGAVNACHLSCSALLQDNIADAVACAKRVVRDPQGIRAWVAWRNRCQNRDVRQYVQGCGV

T2: ovalbumin (UniProt P01012 2-386)
T2 sequence (looked up): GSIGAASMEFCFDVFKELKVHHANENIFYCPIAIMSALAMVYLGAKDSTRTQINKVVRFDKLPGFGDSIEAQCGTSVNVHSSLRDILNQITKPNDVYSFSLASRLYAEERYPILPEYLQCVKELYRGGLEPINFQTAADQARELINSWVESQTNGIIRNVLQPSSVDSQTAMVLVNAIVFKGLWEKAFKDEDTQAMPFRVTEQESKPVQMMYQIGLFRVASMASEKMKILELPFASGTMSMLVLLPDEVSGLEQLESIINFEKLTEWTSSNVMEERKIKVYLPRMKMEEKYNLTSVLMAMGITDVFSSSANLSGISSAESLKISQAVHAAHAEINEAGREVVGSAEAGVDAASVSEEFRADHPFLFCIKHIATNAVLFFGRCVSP

B1: HVLHLFL (antibody, V domains shown)
VL: DIQMTQSPSSLSASVGDRVTITCLASQSIFLYLDWYQQKPGKAPKLLCFFASTLESGVPSRFSCSGSGTDFTLTISNLQPEDFATYYCQQSYSTPRTFGHGTKVTVL
notes: Anti-human lysozyme VL from the HVLP324S library; KD not determined
B2: HVLHSA1 (antibody, V domains shown)
VL: DIQMTQSPSSLSASVGDRVTITCRASQSISTYLNWYQQKPGKAPKLLCFGASRLNSGVPSRFSCSGSGTDFTLTISNLQPEDFATYYCRQLFPLPDRRTFGHGTKVTVL
notes: Anti-human serum albumin VL single-domain antibody from the HVLP324S library (Cys48/Cys64); also called anti-human serum albumin VL; not shown: C-terminal His6 tag

Key:
[1] = target: T1, human lysozyme; test: phage ELISA, phage-displayed VL on immobilized human lysozyme
[2] = target: T2, ovalbumin; test: SPR (Biacore 3000), VL over immobilized ovalbumin (about 2,200 RUs)
Method: (§1) The KD of the VL against human serum albumin was determined by surface plasmon resonance as described for other domains above. Briefly, the binding of the VL to immobilized human serum albumin was determined by SPR using the BIACORE 3000 (GE Healthcare). Approximately 1,600 RUs of human serum albumin, 1,900 RUs of bovine serum albumin and 2,200 RUs of ovalbumin were immobilized on a research grade CMS sensor chip. An ethanolamine blocked surface was prepared, as a reference, in exactly the same manner as the protein surfaces. Immobilizations were carried out at concentrations of 20 μg/mL in 10 mM acetate buffer pH 4.5 using the amine coupling kit supplied by the manufacturer. The VL was passed through a Superdex 75 column (GE Healthcare) to eliminate any possible aggregates prior to Biacore analysis. For the binding studies, analyses were carried out at 25° C. in 10 mM HEPES, pH 7.4 containing 150 mM NaCl, 3 mM EDTA and 0.005% surfactant P20. The flow rates used were 40 μL/min and sample volumes were 60 μL. For regeneration the surface was washed for 10 min with the running buffer. Data were analyzed with BIAevaluation 4.1 software.

[3] = target: bovine serum albumin (bovine, UniProt P02769 25-607); test: SPR (Biacore 3000), VL over immobilized bovine serum albumin (about 1,900 RUs)
bovine serum albumin, sequence (P02769 25-607 limits assumed): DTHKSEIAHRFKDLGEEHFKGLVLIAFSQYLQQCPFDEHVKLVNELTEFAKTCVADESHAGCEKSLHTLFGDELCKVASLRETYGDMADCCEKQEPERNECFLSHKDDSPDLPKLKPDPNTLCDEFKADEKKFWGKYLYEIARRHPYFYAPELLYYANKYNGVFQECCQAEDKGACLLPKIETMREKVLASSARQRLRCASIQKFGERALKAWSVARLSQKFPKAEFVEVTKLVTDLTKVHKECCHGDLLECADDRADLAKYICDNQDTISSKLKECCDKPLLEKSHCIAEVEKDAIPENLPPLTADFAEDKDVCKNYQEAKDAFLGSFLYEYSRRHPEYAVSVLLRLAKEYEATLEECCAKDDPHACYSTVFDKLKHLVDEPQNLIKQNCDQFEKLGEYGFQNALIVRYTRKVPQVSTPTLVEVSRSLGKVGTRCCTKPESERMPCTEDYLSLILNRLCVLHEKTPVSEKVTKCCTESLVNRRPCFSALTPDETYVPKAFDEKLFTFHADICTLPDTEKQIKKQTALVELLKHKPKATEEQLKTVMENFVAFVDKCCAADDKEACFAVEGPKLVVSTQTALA
Method: as §1

[4] = target: T3, human serum albumin (human, UniProt P02768 25-609); test: SPR (Biacore 3000), VL over immobilized human serum albumin
T3 construct: also called HSA
T3 sequence (P02768 25-609 limits assumed): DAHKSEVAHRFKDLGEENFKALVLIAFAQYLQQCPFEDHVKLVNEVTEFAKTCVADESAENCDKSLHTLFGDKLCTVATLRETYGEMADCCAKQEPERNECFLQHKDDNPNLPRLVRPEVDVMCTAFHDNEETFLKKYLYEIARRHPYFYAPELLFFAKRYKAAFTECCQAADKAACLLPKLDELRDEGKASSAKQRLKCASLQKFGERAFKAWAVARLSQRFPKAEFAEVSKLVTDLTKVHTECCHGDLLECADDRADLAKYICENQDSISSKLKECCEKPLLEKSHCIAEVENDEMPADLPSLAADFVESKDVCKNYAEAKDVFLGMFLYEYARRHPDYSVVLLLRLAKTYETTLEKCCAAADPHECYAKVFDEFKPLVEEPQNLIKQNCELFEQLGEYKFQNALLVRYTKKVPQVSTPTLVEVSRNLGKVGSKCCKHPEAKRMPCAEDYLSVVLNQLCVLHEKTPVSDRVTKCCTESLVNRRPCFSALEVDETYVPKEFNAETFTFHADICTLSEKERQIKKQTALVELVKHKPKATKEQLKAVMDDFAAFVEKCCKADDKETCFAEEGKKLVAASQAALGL
Method: as §1

Binder | binding result [1] | binding result [2] | binding result [3] | Kd [4] [µM]
B1 | binds |  |  | 
B2 |  | no binding | no binding | 0.8
